Article PMC5974088 (2018)
Where no end group is shown, it is not given here. Me2 = dimethyl-lysine

Key:
Assay in all cases: ITC
[1] = target: 53BP1 Tudor Y1523S (H. sapiens, UniProt Q12888 1484-1603, Y1523S)
[2] = target: 53BP1 Tudor W1495A (H. sapiens, UniProt Q12888 1484-1603, W1495A)
[3] = target: 53BP1 Tudor Y1500A (H. sapiens, UniProt Q12888 1484-1603, Y1500A)
[4] = target: T1, 53BP1 tandem Tudor domain (1484-1603) (H. sapiens, UniProt Q12888 1484-1603)
T1 chain: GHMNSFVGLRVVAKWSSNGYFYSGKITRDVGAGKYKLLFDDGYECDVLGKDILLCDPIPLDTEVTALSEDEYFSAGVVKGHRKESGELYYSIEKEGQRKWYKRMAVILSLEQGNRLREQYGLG

[5] = target: 53BP1 Tudor Y1502A (H. sapiens, UniProt Q12888 1484-1603, Y1502A)
[6] = target: 53BP1 Tudor Y1523A (H. sapiens, UniProt Q12888 1484-1603, Y1523A)
[7] = target: 53BP1 Tudor D1521A (H. sapiens, UniProt Q12888 1484-1603, D1521A)
Chain of 53BP1 Tudor D1521A (Q12888 other isoform, or with tags, fused parts or gaps D1521A | D1521A): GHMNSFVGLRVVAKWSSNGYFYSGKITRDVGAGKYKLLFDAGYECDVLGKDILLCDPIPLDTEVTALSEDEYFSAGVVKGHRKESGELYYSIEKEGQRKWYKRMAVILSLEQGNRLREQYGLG

Chain of 53BP1 Tudor Y1502A (Q12888 other isoform, or with tags, fused parts or gaps Y1502A | Y1502A): as the sequence (Q12888 other isoform, or with tags, fused parts or gaps D1521A | D1521A) above, with Y22A, A41D counted along it
Chain of 53BP1 Tudor W1495A (Q12888 other isoform, or with tags, fused parts or gaps W1495A | W1495A): as the sequence (Q12888 other isoform, or with tags, fused parts or gaps D1521A | D1521A) above, with W15A, A41D counted along it
Chain of 53BP1 Tudor Y1500A (Q12888 other isoform, or with tags, fused parts or gaps Y1500A | Y1500A): as the sequence (Q12888 other isoform, or with tags, fused parts or gaps D1521A | D1521A) above, with Y20A, A41D counted along it

## KRHRK(Me2)VLRDN [H4K20me2]
[1]
  Kd: 65.8 µM
[2]
  Kd: > 1.5 mM
[3]
  Kd: 163 µM
[4]
  Kd: 19.7 µM
[5]
  Kd: 151 µM
[6]
  Kd: 7.8 µM
[7]
  Kd: > 1.5 mM
